The target of one data set is Tat (wild-type) (HIV-1) (UniProt P04608). In words: EMSA. The conditions noted are these: printed as Ka of 6.4x10^-10 M; Scatchard, one tat per TAR RNA.
Data set [1] concerns the target TRP-185 (cellular TAR RNA binding protein, about 185 kD) (Homo sapiens) (UniProt Q13395). In words: EMSA. (A gel shift assay detects complexes by their altered migration in electrophoresis.)

Usually Kd stands for the constant that tells how readily two partners part at equilibrium. Read a low Kd as a tighter complex.

Chain of TRP-185 (cellular TAR RNA binding protein, about 185 kD) (Homo sapiens) (Q13395 whole entry): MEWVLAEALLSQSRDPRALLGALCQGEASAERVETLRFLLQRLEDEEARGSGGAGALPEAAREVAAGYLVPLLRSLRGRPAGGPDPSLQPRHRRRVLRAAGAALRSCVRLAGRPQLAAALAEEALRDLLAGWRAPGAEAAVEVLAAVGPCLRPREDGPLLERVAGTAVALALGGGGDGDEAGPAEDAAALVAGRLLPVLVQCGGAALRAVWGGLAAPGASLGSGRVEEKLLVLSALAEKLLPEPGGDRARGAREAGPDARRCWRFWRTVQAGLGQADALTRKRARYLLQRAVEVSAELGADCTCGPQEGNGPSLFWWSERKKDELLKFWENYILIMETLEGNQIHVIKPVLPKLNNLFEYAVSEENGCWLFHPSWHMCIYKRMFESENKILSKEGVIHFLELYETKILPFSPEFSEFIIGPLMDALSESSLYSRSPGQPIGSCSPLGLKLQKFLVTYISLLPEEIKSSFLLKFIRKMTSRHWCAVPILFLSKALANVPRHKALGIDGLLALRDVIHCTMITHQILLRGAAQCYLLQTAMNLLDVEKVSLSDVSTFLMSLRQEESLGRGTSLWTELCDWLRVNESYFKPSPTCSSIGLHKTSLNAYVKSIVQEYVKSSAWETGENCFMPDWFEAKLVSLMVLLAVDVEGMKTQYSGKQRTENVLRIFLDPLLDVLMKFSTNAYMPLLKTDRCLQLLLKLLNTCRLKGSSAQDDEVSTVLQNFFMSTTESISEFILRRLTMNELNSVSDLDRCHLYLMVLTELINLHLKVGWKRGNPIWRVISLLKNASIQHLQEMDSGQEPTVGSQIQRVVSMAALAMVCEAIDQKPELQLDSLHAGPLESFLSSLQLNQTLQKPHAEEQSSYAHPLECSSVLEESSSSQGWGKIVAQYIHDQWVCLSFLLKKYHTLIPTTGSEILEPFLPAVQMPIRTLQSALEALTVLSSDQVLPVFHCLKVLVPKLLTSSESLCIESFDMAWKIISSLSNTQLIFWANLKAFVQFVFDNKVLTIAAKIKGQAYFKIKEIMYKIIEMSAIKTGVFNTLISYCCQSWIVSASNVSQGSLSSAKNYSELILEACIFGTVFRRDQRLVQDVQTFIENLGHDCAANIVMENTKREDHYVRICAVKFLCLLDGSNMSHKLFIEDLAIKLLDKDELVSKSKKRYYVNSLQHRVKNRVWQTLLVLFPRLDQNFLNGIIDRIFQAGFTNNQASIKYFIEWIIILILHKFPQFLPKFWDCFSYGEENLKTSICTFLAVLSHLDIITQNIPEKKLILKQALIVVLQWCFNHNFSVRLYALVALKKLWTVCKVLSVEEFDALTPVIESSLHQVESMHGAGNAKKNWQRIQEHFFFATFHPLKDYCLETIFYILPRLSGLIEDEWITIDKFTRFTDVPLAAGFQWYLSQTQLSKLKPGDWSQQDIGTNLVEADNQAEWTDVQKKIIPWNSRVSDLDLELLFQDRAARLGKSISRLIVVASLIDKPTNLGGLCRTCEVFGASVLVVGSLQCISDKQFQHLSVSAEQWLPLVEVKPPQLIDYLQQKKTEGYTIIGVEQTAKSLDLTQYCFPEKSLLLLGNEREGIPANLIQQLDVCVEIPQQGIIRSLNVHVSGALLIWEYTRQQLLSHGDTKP

As for HIV TAR RNA wild-type (+1/+80), the Kd in the data set with Tat (wild-type) (HIV-1) was found to be 0.64 nM; in data set [1] (Scatchard, cofactor fraction required with sucrose gradient TRP-185, room temperature, 50 mM KCl) it was 0.000315 µM.

Take nonspecific RNA: the Kd in data set [1] (data not shown) amounted to 21.1 µM.

(Values after patent US5677143.)
